{
  "source": "ChEMBL document CHEMBL1152764",
  "about": "“Penicilliols A and B, novel inhibitors specific to mammalian Y-family DNA polymerases” (Bioorg Med Chem, 2009)",
  "key": {"[1]": {"substrate": "C/C=C/C(=O)C1=C(OC)OC(C)(/C=C/C=C/C(C)O)C1=O", "test": "Activity of mouse DNA polymerase iota using poly(dA/oligo(dT) substrate at 15 uM by Lineweaver-Burke plot"}, "[2]": {"substrate": "C/C=C/C(=O)C1=C(OC)OC(C)(/C=C/C=C/C(C)O)C1=O", "test": "Activity of mouse DNA polymerase iota using dTTP substrate at 5 uM by Lineweaver-Burke plot"}, "[3]": {"substrate": "C/C=C/C(=O)C1=C(OC)OC(C)(/C=C/C=C/C(C)O)C1=O", "test": "Activity of mouse DNA polymerase iota using poly(dA/oligo(dT) substrate at 5 uM by Lineweaver-Burke plot"}, "[4]": {"substrate": "C/C=C/C(=O)C1=C(OC)OC(C)(/C=C/C=C/C(C)O)C1=O", "test": "Activity of mouse DNA polymerase iota using dTTP substrate at 15 uM by Lineweaver-Burke plot"}, "[5]": {"substrate": "C/C=C/C(=O)C1=C(OC)OC(C)(/C=C/C=C/C(C)O)C1=O", "test": "Activity of mouse DNA polymerase iota using dTTP substrate at 10 uM by Lineweaver-Burke plot"}, "[6]": {"substrate": "C/C=C/C(=O)C1=C(OC)OC(C)(/C=C/C=C/C(C)O)C1=O", "test": "Activity of mouse DNA polymerase iota using poly(dA/oligo(dT) substrate at 10 uM by Lineweaver-Burke plot"}},
  "data": [
    {"protein": "DNA polymerase iota (Mus musculus), Q6R3M4 (protein) MEPLHAGAAGSSRAVCSQGPPTQISSSRVIVHVDLDCFYAQVEMISNPELKDRPLGVQQKYLVVTCNYEARKLGVRKLMNVRDAKEKCPQLVLVNGEDLSRYREMSYKVTELLEEFSPAVERLGFDENFVDLTEMVEKRLQQLPSEEVPSVTVFGHVYNNQSVNLHNIMHRRLVVGSQIAAEMREAMYNQLGLTGCAGVAPNKLLAKLVSGVFKPNQQTVLLPESCQHLIHSLNHIKEIPGIGYKTAKRLEVLGINSVHDLQTFPIKTLEKELGIAIAQRIQQLSFGEDKSPVTPSGPPQSFSEEDTFKKCSSEVEAKAKIEELLSSLLTRVCQDGRKPHTVRLVIRRYSDKHCNRESRQCPIPSHVIQKLGTGNHDSMPPLIDILMKLFRNMVNVKMPFHLTLMSVCFCNLKALSSAKKGPMDCYLTSLSTPAYTDKRAFKVKDTHTEDSHKEKEANWDCLPSRRIESTGTGESPLDATCFPKEKDTSDLPLQALPEGVDQEVFKQLPADIQEEILYGKSRENLKGKGSLSCPLHASRGVLSFFSTKQMQASRLSPRDTALPSKRVSAASPCEPGTSGLSPGSTSHPSCGKDCSYYIDSQLKDEQTSQGPTESQGCQFSSTNPAVSGFHSFPNLQTEQLFSTHRTVDSHKQTATASHQGLESHQGLESRELDSAEEKLPFPPDIDPQVFYELPEEVQKELMAEWERAGAARPSAHR", "values": [
      {"measurement": "Vmax", "setting": "[1]", "value": 14.8, "unit": "pmol/h"},
      {"measurement": "Vmax", "setting": "[2]", "value": 35.7, "unit": "pmol/h"},
      {"measurement": "Vmax", "setting": "[3]", "value": 31.1, "unit": "pmol/h"},
      {"measurement": "Vmax", "setting": "[4]", "value": 22.5, "unit": "pmol/h"},
      {"measurement": "Vmax", "setting": "[5]", "value": 27.6, "unit": "pmol/h"},
      {"measurement": "Vmax", "setting": "[6]", "value": 20, "unit": "pmol/h"}
    ]}
  ]
}
